{"source": "paper PMC12644819", "about": "(Nature Communications, 2025)", "key": {"LptD": {"molecular_target": "T1, LptD (E. coli, UniProt P31554 25-784, disulfide bonds Cys31-Cys724 and Cys173-Cys725)", "T1 construct": "LptD, E. coli outer membrane LPS transporter, β-taco domain plus 26-stranded β-barrel; called full-length LptD in contrast to the β-barrel truncation; Untagged wild-type LptD; also called full-length LptD; endogenous LptD; source: E. coli BW25113, overproduced from pLptDEM^His or pLptDE^His, or endogenous; DDM-solubilised envelope fraction; co-purified (Ni-NTA, SEC)", "T1 sequence (looked up)": "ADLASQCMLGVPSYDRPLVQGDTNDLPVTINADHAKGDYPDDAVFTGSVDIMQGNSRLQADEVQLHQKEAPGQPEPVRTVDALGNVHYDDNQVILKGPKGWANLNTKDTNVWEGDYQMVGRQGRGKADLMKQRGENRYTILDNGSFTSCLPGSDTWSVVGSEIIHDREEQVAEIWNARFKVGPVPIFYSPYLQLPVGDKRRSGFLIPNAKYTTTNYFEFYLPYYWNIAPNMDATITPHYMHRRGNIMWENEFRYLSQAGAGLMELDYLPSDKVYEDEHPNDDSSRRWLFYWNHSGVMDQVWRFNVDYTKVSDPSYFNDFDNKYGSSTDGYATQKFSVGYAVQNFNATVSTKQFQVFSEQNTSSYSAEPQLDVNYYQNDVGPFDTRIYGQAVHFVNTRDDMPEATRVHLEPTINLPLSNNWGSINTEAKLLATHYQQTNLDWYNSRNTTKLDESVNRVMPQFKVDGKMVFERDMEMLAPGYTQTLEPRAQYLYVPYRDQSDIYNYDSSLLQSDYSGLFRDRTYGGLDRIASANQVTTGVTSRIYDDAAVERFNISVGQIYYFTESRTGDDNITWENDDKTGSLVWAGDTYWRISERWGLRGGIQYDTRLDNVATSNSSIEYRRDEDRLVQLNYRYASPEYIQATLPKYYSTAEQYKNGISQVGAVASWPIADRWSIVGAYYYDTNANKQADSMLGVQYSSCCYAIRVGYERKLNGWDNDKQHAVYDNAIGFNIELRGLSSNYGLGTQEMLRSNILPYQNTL", "experiment": "affinity purification with mass spectrometry; nickel-affinity chromatography and gel filtration of LptM^His (wild-type cells) or LptE^His (ΔlptM cells) from DDM-solubilised envelope; SDS-PAGE with Coomassie; ~15 kDa band identified by bottom-up mass spectrometry", "conditions": "partners not purified"}, "LptDEM^His": {"molecular_target": "T2, LptDEM^His (E. coli, UniProt P31554 25-784; P0ADC1 19-193; P0ADN6 20-67, lipoprotein | lipoprotein)", "T2 construct": "LptD, E. coli; LptE, E. coli; LptM, E. coli; source: E. coli BW25113 wild type, from pLptDEM^His; purified (Ni-NTA, SEC) in DDM; copies: 1 + 1 + 1", "T2 sequence (P0ADC1 19-193, one chain of several)": "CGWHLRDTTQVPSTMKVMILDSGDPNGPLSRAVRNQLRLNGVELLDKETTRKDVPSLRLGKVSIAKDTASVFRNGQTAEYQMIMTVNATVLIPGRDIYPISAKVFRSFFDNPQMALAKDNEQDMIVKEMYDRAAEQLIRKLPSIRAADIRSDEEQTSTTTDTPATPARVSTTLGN", "experiment": "native MS; purified LptDEM^His and LptDE^His complexes; subpopulation with a mass shift of 14,301 Da; re-analysed and new spectra", "conditions": "both partners purified"}, "LptDE^His": {"molecular_target": "T3, LptDE^His (E. coli, UniProt P31554 25-784; P0ADC1 19-193, lipoprotein)", "T3 construct": "LptD, E. coli; LptE, E. coli; also called core translocon; the translocon; source: E. coli BW25113 (ΔlptM for native MS), from pLptDE^His or derivatives of pLptDME^His; Ni-NTA (and SEC) in DDM; copies: 1 + 1", "T3 sequence (P0ADC1 19-193, one chain of several)": "as above", "experiment": "native MS; purified LptDEM^His and LptDE^His complexes; subpopulation with a mass shift of 14,301 Da; re-analysed and new spectra", "conditions": "both partners purified"}}, "note": "Ends that are not written are not given here."}
{"binder": "CGLKGPLYFPPADKNAPPPTKPVETQTQSTVPDKNDRATGDGPSQVNY (natural protein, E. coli, UniProt P0ADN6 20-67, looked up, also: lipoprotein, acyl tails on N-terminal Cys, His-tagged (LptM^His), LptM, E. coli lipoprotein; source: E. coli BW25113, from pLptDEM^His or pLptD^β-barrelEM^His; DDM-solubilised envelope fraction; purified (Ni-NTA, SEC))", "note": "[LptM^His]", "values": [{"measurement": "binding result", "setting": "LptD", "result": "binds"}]}
{"binder": "LptY (natural protein, E. coli, UniProt P31063 16-137, looked up, lipoprotein, LptY (formerly YedD), E. coli OM lipoprotein of ~14 kDa; an AlphaFold2 model was docked; also called YedD; source: endogenous, E. coli BW25113; co-purified with LptDEM^His or LptDE^His (Ni-NTA, SEC)) CAEVENYNNVVKTPAPDWLAGYWQTKGPQRALVSPEAIGSLIVTKEGDTLDCRQWQRVIAVPGKLTLMSDDLTNVTVKRELYEVERDGNTIEYDGMTMERVDRPTAECAAALDKAPLPTPLP", "values": [{"measurement": "stoichiometry N", "setting": "LptDEM^His", "result": "1 LptD:LptE:LptM:LptY"}, {"measurement": "stoichiometry N", "setting": "LptDE^His", "result": "1 LptD:LptE:LptY"}]}
